Measured values published in US20170198040A1 (Novartis, published 2017).

How the values were obtained:
[1] = target: T1, human CD32b expressed endogenously on human cells (human, UniProt P31994 43-310); experiment: flow cytometry on BJAB cells; biotinylated hIgG1 [N297A] antibody, streptavidin-PE, GMFI
T1 construct: whole, on cells; The background says that CD32b1 is the form on lymphoid cells and CD32b2 the form on myeloid cells; also called CD32b on primary human B cells, plasma cells, macrophages, BJAB, KARPAS422 and Daudi cells
T1 sequence (looked up): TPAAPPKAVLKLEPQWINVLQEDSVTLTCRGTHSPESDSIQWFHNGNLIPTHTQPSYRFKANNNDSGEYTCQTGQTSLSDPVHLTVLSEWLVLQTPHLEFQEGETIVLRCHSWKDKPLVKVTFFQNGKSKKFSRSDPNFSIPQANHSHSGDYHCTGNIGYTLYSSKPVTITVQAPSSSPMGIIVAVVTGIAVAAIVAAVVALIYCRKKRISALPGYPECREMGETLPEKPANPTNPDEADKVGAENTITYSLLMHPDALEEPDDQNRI
Description: The binding of huCD32b specific antibodies to the BJAB cell line was evaluated by flow cytometry. BJAB cells were collected and suspended in FACS Buffer (PBS1× containing 2% BSA, 2 mM EDTA), counted and suspended at 0.25×10⁶ cells per ml. 50'000 cells/well (200 μl) were then dispensed in V-bottomed 96 well plates. Plates were spun for 5 min at 1500 rpm and the supernatant discarded. […] Biotinylation of antibodies was performed using the Lightning-Link biotin conjugation kit (Type A) from Innova Biosciences (Cat. No 704-0010) according to the supplier's instructions. After 2 successive washes with FACS buffer, cells were suspended in 50 μl FACS buffer containing a 1/500 dilution of Streptavidin-PE (Invitrogen 521388) and further incubated for 20 min at 4° C. Cells were washed twice and suspended in 200 μl FACS buffer and acquired on a FACS Fortessa. The Geometric Mean Fluorescence (GMFI in the PE channel) was used as a measure of the binding intensity of each antibody.

[2] = target: T2, WT human CD32b1 expressed on stably transfected cells (human, UniProt P31994 43-310); experiment: flow cytometry on stable CHO cells expressing huCD32b (MW83); hIgG1 [N297A] antibody, GMFI
T2 construct: also called huCD32b; WT CD32b
T2 sequence: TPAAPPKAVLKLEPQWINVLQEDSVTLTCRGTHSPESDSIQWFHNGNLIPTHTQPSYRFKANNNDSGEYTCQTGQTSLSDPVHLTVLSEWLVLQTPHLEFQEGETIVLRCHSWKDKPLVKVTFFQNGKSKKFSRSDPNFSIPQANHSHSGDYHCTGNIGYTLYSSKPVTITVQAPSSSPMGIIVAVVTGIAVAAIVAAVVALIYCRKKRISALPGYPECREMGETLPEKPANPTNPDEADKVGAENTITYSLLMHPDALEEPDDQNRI
Description: (§1) HuCD32b and huCD32a have high degree of sequence homology. […] CHO cells were collected following detachment with PBS containing 2 mM EDTA and pelleted. Cell pellets were washed once in PBS and suspended in FACS Buffer (PBS1× containing 2% BSA, 2 mM EDTA and 0.1% NaN3), counted and suspended at 0.25×10⁶ cells per ml. 50'000 cells/well (200 μl) were then dispensed in V-bottomed 96 well plates. Plates were spun for 5 min at 1600 rpm and the supernatant discarded. […] After 3 successive washes with FACS buffer, cells were suspended in 50 μl FACS buffer containing a 1/100 dilution of the F(ab′)2 anti-human F(ab′)2-PE (Jackson Immunoresearch#109-116-097) and further incubated 30 min at 4° C. Cells were washed twice and suspended in 200 μl FACS buffer and acquired on a FACS Canto II (acquisition of 5000 cells in the live cell gate). The Geometric Mean Fluorescence (GMFI in the PE channel) was used as a measure of the binding intensity of each antibody.

MW82 (huCD32a H131) = target: T3, MW82 (huCD32a H131) (human, UniProt P12318); experiment: flow cytometry on stable CHO cells expressing huCD32a H131 (MW82); hIgG1 [N297A] antibody, GMFI
T3 sequence (receptor, looked up): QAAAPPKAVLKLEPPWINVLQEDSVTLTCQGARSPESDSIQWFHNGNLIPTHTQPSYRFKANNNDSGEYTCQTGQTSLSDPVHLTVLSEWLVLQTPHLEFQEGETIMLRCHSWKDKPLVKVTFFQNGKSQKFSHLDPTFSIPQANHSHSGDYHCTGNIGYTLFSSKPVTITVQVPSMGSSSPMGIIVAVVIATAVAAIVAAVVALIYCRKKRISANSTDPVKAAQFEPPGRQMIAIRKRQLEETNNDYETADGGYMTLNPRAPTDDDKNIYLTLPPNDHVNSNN
Description: as §1

[3] = target: T4, huCD64 (Fc gamma RI) expressed on stable CHO cells (human, UniProt P12314 16-374); experiment: flow cytometry on stable CHO cells expressing huCD64; hIgG1 [N297A] antibody, GMFI; the text ascribes this binding to the Fc portion
T4 construct: whole, on cells; also called CHO-huCD64
Description: The binding of huCD32b specific antibodies was evaluated by flow cytometry using stable CHO cell lines expressing the low affinity human CD16 variants (i.e huCD16a or huCD16b variants) and the high affinity huCD64 (FcγRI). CHO cells transfected with huCD16a variants were also transfected with the common Fcγ chain in order to allow for surface expression. CHO cells were collected following detachment with PBS containing 2 mM EDTA and pelleted. Cell pellets were washed once in PBS and suspended in FACS Buffer (PBS1× containing 2% BSA, 2 mM EDTA and 0.1% NaN3), counted and suspended at 0.25×10⁶ cells per ml. 50'000 cells/well (200 μl) were then dispensed in V-bottomed 96 well plates. Plates were spun for 5 min at 1600 rpm and the supernatant discarded. […] After 3 successive washes with FACS buffer, cells were suspended in 50 μl FACS buffer containing a 1/100 dilution of the F(ab′)2 anti-human F(ab′)2-PE (Jackson Immunoresearch#109-116-097) and further incubated 30 min at 4° C. Cells were washed twice and suspended in 200 μl FACS buffer and acquired on a FACS Canto II (acquisition of 5000 cells in the live cell gate). The Geometric Mean Fluorescence (GMFI in the PE channel) was used as a measure of the binding intensity of each antibody.

T4 sequence (P12314 16-374): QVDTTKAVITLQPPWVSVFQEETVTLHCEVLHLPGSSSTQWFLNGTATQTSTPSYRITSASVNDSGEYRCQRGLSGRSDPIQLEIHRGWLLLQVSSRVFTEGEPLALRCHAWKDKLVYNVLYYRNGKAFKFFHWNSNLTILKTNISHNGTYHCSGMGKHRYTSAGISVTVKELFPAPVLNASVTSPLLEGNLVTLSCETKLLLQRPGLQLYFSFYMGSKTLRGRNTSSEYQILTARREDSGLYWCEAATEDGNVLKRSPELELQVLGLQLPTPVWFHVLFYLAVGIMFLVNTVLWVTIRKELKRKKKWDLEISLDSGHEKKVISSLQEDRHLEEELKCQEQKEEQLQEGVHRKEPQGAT

binding affinity (printed 'BJABs:') [1]: 110 nM
EC50 (read off the curve) [2]: ~30 nM
binding result (MW82 (huCD32a H131)): no binding (tested: 1000 nM)
binding result [3]: binds
B1: NOV1219 (antibody, human IgG1, lambda, N297A)
heavy chain: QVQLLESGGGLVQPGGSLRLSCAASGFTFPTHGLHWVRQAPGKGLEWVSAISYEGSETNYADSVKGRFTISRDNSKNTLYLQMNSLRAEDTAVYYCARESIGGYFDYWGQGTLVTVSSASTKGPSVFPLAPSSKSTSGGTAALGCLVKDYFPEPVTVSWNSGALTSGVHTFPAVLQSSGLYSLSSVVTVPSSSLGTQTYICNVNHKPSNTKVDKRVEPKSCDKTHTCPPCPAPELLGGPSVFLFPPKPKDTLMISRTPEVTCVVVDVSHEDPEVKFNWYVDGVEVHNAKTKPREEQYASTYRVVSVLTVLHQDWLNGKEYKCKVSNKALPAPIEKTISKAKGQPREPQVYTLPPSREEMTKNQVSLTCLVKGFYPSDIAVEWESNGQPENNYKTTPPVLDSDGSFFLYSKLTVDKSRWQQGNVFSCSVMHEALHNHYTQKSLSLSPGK
light chain: SYELTQPLSVSVALGQTARITCSGDALGKNTVSWYQQKPGQAPVLVIYDDTDRPSGIPERFSGSNSGNTATLTISRAQAGDEADYYCSSTDLSTVVFGGGTKLTVLGQPKAAPSVTLFPPSSEELQANKATLVCLISDFYPGAVTVAWKADSSPVKAGVETTTPSKQSNNKYAASSYLSLTPEQWKSHRSYSCQVTHEGSTVEKTVAPTECS
notes: also called NOV1219_N297A; NOV1219 on a human IgG1 [N297A] scaffold
